Data taken from patent US20180030119A1 (published 2018).

How the values were obtained:
[1] = molecular target: F protein of clinical RSV isolate #1, on virus; test: cell-based or functional assay
[2] = molecular target: T1, RSV F protein as coated in the ELISA of Example 3 (RSV-EIA antigen by the legend of FIG. 6) (RSV, strain ); test: ELISA, serial dilutions of purified AR201 on coated antigen, anti-human IgG-HRP, four parameter fit
T1 construct: also called total RSV antigen (EIA-antigen)

B1: AR201 (antibody, V domains shown)
VH: LVQLRESGPGLVKPSQTLSLTCSVSGASINLYDYFWGWIRQAPGRGPEWIGYISGSTYYNPSLKRRATISVDTSKSQFFLELTSVTAADTAVYYCARDVGWGPQYYYGLDVWGQGTTVTVSS
VL: DLVLTQSPGTLSLSPGERATLSCRASHSVQSTSLAWYQQKRGQAPRLLIYGGSSRVTGIPDRFSGSGSGTDFTLTISRLEPEDFAVYYCQQSDRSPPITFGQGTRLEMK
notes: Fully human IgG1, kappa; 1 and 3 are used here; also called KBRV201
Question: What does the source list for B1?
Answer: IC50 of neutralisation, infectivity assay on Hep2 cells [1]: 1700 nM; EC50 [2]: 0.103 nM
